Data reported in US20120058100A1, “MODULATION OF DRUG RELEASE RATE FROM ELECTROSPUN FIBERS” (priority 2006, published 2012).

Test: Release of FITC-BSA from emulsion-electrospun PU, PLA and co-spun fibers in PBS
Format: physicochemical
Method: Polymers were dissolved in organic solvent and emulsified with a H2O/Poly(vinyl alcohol) mixture with the molecule to be released dispersed in the aqueous phase. Polyurethane (PU) was dissolved at 6 wt % in a mixture of chloroform and tetrahydrofuran. PLA was dissolved at 2 wt % in chloroform. Drugs were loaded into the PVA/Water mixture with aqueous volume fractions ranging from 10-20 vol %. Emulsions were loaded into plastic syringe fitted with a blunt tip 18-gauge needle and placed into a syringe pump.
Circular discs were punched out from the aluminum foil and polymer fibers removed from Al-backing. Samples placed in centrifuge tubes individual glass vials with PBS. Samples degraded in at room temperature (20° C.) on a rotisserie. The buffer was sampled at given intervals. Depending on release molecule, different spectrophotometric techniques were used to measure release profiles.
The concentration was determined fluorometrically by measuring […] at λ=495 nm. Samples were placed in 10 ml of PBS and 200 μl of buffer was used to run the assay and not replaced (total amount withdrawn from tube was less than 40% of total volume). Average concentration plotted over 360 hour time course (n=3).

FITC-BSA: fluorescein isothiocyanate conjugated albumin, a model protein
duration over which release can be achieved (PU and PLA fibers): ≥ 15 days | release from meshes of co-spun PLA and PU fibers relative to pure PLA or PU meshes (co-spun PLA and PU fibers): intermediate manner | release rate relative to doxycycline (electrospun fibers): much slower release rates
